# Data taken from US20080311034A1 (published 2008).
# T1: recombinant polyhistidine tagged mouse FcγRII (R&D Systems) (mouse, UniProt P08101 40-217, limits assumed)
# T1 construct: Bought; also called FcRII
# T1 sequence (looked up): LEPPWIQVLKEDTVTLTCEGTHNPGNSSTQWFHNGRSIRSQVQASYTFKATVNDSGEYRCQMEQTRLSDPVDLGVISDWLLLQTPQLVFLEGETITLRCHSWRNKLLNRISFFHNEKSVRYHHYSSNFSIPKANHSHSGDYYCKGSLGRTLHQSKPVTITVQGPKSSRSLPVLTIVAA
# T2: recombinant polyhistidine tagged mouse FcγRI (R&D Systems) (mouse, UniProt P26151 25-297)
# T2 construct: Bought; also called murine FcγRI
# T2 sequence (looked up): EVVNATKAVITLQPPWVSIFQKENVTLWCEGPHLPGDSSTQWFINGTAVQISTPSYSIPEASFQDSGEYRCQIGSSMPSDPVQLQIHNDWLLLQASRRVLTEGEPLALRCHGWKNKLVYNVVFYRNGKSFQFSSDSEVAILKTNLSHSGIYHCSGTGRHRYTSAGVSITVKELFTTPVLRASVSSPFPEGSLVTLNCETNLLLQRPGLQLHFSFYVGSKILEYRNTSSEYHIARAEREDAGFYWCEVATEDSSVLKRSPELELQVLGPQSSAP
# T3: recombinant polyhistidine tagged mouse FcγRIII (R&D Systems) (mouse, UniProt P08508 31-215)
# T3 construct: Bought
# T3 sequence (looked up): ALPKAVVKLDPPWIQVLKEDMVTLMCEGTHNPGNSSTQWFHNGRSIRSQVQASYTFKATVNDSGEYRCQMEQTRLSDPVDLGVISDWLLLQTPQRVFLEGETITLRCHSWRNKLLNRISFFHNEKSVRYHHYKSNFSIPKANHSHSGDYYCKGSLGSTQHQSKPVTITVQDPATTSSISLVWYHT
# T4: recombinant polyhistidine tagged mouse FcγRIV (R&D Systems) (mouse, UniProt A0A0B4J1G0 21-203)
# T4 construct: Bought
# T4 sequence: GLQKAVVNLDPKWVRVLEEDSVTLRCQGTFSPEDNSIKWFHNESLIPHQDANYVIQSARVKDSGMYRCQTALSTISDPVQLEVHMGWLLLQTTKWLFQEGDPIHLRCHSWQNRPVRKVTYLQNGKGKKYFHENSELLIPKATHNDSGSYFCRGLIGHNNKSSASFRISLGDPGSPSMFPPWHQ
# B1: CHO-CNTO 860 WT (antibody, human IgG1, kappa)
# heavy: not shown
# light: DIQMTQSPSSLSASVGDRVTITCKASQDIRKYLNWYQQKPGKAPKLLIYYATSLADGVPSRFSGSGSGTDYTFTISSLQPEDIATYYCLQHGESPYTFGQGTKLEITRTVAAPSVFIFPPSDEQLKSGTASVVCLLNNFYPREAKVQWKVDNALQSGNSQESVTEQDSKDSTYSLSSTLTLSKADYEKHKVYACEVTHQGLSSPVTKSFNRGEC
# modifications: N-linked glycan at heavy chain Asn297 (CHO-type, highly fucosylated); not carried by the letters
# notes: Anti-human tissue factor human IgG1/kappa; transiently expressed in CHO cells (plasmids p4145/p4146; CHO Abs typically 95% fucosylated), purified by protein A; also called CNTO 860 WT from CHO cells; WT (CHO cell-derived); copies: 2 + 2
# B2: YB2/0-CNTO 860 WT (antibody, human IgG1, kappa)
# heavy: not shown
# light: B1 light
# modifications: Heavy chain N297 carries the YB2/0-type N-linked glycan (40-60% fucosylated); not carried by the letters.
# notes: Anti-human tissue factor human IgG1/kappa; stably expressed in rat YB2/0 cells (p2401/p2402; YB2/0 Abs typically 40-60% fucosylated), purified by protein A; also called WT (YB2/0 cell-derived); WT from YB2/0 cells; copies: 2 + 2
# B3: YB2/0-CNTO 860 A330I/I332E (antibody, human IgG1, kappa)
# heavy: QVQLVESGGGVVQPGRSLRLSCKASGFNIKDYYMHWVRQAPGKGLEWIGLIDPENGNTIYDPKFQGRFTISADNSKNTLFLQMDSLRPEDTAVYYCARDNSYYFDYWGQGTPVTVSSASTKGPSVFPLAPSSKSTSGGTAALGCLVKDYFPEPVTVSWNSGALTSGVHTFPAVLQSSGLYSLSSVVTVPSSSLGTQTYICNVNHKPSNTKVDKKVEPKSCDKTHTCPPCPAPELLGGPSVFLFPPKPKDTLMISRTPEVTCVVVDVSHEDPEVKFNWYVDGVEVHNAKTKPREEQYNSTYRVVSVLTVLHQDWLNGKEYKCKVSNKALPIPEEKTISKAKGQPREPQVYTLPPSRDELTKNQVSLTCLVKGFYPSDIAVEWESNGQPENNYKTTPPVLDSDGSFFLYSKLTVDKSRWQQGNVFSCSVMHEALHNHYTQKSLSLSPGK
# light: B1 light
# modifications: N-linked glycan at heavy chain Asn297 (YB2/0-type, low fucose); not carried by the letters
# notes: IgG1/kappa Fc variant; stably expressed in YB2/0 cells (p4178/p2402); EU numbering; also called A330I/I332E (YB2/0 cell-derived); A330I/I332E from YB2/0 cells; copies: 2 + 2
# B4: YB2/0-CNTO 860 A330I (antibody, IgG1)
# heavy: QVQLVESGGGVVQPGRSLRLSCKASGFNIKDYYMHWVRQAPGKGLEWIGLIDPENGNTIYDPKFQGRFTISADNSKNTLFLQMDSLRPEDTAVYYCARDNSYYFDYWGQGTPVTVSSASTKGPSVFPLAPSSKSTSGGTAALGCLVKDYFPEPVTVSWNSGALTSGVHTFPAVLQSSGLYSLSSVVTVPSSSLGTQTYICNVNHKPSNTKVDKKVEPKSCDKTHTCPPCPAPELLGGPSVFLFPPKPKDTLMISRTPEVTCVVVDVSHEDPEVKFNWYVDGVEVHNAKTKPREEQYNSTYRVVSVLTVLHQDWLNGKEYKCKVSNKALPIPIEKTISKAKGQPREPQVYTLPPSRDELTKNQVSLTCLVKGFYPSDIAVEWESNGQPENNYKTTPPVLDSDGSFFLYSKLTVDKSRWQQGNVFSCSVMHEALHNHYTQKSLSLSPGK
# light: B1 light
# modifications: N-linked glycan at heavy chain Asn297 (YB2/0-type, low fucose); not carried by the letters
# notes: IgG1/kappa Fc variant; stably expressed in YB2/0 cells (p4177/p2402); EU numbering; also called A330I (YB2/0 cell-derived); A330I mutant expressed in YB2/0 cells; copies: 2 + 2
# B5: CHO-CNTO 860 A330Y (antibody, human IgG1, kappa)
# heavy: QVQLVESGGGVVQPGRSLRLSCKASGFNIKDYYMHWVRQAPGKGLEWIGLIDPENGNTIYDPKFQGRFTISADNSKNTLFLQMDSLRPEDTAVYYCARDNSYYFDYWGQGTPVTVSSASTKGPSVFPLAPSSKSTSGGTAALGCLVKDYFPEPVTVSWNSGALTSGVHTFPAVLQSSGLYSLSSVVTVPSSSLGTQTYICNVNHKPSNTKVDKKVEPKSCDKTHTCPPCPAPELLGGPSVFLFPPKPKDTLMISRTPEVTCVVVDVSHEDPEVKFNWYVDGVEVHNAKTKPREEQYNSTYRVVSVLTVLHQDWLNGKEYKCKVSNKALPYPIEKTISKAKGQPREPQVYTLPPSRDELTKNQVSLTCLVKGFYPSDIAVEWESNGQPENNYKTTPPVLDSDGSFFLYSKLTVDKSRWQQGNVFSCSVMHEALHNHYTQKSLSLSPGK
# light: B1 light
# modifications: N-linked glycan at Asn297 of the heavy chain (CHO-type, highly fucosylated); not carried by the letters
# notes: IgG1/kappa Fc variant; transiently expressed in CHO cells (p4183/p4146); EU numbering; also called A330Y (CHO cell-derived); copies: 2 + 2
# B6: YB2/0-CNTO 860 I332E (antibody, human IgG1, kappa)
# heavy: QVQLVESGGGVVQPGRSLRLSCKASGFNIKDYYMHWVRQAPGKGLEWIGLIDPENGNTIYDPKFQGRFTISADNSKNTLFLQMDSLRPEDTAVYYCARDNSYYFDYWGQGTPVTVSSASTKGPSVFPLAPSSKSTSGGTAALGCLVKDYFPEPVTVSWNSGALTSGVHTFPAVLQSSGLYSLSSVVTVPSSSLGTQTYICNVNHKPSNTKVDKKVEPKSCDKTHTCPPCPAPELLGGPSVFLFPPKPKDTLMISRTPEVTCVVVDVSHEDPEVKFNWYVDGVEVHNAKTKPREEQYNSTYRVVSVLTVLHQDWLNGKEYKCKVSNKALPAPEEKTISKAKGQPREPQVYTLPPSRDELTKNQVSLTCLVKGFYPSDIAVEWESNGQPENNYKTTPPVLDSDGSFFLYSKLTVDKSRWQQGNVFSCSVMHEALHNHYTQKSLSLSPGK
# light: B1 light
# modifications: Heavy chain N297 carries the YB2/0-type low-fucose N-linked glycan; not carried by the letters.
# notes: IgG1/kappa Fc variant; stably expressed in YB2/0 cells (p4148/p2402), low-fucose glycan; EU numbering; also called I332E (YB2/0 cell-derived); I332E from YB2/0 cells; copies: 2 + 2
# B7: YB2/0-CNTO 860 V264I/I332E (antibody, human IgG1, kappa)
# heavy: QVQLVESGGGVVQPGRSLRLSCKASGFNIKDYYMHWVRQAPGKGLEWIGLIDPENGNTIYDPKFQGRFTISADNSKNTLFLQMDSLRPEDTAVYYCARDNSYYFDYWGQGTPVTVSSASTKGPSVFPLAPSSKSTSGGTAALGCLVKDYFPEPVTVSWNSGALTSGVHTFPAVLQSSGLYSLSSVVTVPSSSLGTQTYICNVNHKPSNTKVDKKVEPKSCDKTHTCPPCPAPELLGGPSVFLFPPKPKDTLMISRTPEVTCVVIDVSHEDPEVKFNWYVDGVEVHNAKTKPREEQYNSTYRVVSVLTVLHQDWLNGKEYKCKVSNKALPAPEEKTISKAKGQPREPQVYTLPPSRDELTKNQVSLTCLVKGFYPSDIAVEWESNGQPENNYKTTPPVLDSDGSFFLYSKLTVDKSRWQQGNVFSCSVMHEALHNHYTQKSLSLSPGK
# light: B1 light
# modifications: N-linked glycan at heavy chain Asn297 (YB2/0-type, low fucose); not carried by the letters
# notes: IgG1/kappa Fc variant; stably expressed in YB2/0 cells (p4180/p2402); EU numbering; also called V264I/I332E (YB2/0 cell-derived); copies: 2 + 2
# B8: YB2/0-CNTO 860 S239D/I332E (antibody, human IgG1, kappa)
# heavy: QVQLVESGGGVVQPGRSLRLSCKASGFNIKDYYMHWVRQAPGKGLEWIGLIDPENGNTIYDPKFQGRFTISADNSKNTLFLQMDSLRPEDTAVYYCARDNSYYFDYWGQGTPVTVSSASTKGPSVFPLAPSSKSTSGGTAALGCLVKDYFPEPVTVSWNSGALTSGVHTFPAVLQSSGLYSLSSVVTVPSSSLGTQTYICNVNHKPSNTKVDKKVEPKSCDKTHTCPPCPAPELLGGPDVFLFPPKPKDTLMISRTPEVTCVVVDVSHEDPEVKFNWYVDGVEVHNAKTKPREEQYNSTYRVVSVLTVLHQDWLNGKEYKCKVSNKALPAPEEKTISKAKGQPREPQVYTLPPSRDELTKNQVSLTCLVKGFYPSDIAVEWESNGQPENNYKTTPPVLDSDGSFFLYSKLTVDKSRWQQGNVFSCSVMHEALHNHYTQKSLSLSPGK
# light: B1 light
# modifications: N-linked glycan at heavy chain Asn297 (YB2/0-type, low fucose); not carried by the letters
# notes: IgG1/kappa Fc variant; stably expressed in YB2/0 cells (p4179/p2402); EU numbering; also called S239D/I332E (YB2/0 cell-derived); copies: 2 + 2
# B9: CHO-CNTO 860 I332E/S239D (antibody, human IgG1, kappa)
# heavy: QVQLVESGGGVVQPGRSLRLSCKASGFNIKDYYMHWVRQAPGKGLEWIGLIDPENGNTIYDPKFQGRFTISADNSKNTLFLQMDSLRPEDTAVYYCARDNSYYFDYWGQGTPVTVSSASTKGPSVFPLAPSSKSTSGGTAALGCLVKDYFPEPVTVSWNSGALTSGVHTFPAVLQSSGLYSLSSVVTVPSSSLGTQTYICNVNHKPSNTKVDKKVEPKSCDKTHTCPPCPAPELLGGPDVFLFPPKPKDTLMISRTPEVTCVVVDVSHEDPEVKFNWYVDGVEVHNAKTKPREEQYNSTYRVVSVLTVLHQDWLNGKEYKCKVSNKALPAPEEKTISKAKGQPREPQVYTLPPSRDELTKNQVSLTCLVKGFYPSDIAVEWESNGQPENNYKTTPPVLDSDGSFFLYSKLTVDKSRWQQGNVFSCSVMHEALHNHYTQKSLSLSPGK
# light: B1 light
# modifications: Heavy chain N297 carries the CHO-type N-linked glycan (about 95% fucosylated); not carried by the letters.
# notes: IgG1/kappa Fc variant; transiently expressed in CHO cells (p4186/p4146); EU numbering; also called S239D/I332E (CHO cell-derived); copies: 2 + 2
# B10: CHO-CNTO 860 A330I (antibody, IgG1)
# heavy: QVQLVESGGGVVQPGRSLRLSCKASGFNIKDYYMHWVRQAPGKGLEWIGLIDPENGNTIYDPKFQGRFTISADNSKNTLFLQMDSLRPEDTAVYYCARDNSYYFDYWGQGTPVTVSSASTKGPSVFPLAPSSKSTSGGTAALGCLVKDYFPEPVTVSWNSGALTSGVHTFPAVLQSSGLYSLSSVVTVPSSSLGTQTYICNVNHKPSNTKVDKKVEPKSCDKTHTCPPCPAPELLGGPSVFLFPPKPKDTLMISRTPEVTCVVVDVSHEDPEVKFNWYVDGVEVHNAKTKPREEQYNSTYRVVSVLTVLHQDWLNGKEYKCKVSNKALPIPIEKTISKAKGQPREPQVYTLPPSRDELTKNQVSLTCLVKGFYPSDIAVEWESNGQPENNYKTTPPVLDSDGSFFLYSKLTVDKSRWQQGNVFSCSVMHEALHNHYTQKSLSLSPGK
# light: B1 light
# modifications: N-linked glycan at Asn297 of the heavy chain (CHO-type, highly fucosylated); not carried by the letters
# notes: IgG1/kappa Fc variant; EU numbering; also called A330I (CHO cell-derived); copies: 2 + 2
# B11: YB2/0-CNTO 860 A330Y (antibody, human IgG1, kappa)
# heavy: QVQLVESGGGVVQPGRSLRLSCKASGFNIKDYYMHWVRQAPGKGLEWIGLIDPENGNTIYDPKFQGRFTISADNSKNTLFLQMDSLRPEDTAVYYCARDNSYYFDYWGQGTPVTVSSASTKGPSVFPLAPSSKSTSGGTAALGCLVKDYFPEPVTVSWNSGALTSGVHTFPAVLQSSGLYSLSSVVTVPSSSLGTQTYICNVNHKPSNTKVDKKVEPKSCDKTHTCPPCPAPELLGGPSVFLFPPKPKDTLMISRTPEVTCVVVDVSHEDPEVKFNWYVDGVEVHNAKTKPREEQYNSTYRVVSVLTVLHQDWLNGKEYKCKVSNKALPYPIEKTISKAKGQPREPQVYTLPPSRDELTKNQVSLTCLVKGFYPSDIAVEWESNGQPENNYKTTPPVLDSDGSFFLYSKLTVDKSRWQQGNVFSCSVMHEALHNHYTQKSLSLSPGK
# light: B1 light
# modifications: N-linked glycan at heavy chain Asn297 (YB2/0-type, low fucose); not carried by the letters
# notes: IgG1/kappa Fc variant; stably expressed in YB2/0 cells (p4176/p2402); EU numbering; also called A330Y (YB2/0 cell-derived); copies: 2 + 2
# B12: CHO-CNTO 860 I332E/A330I (antibody, human IgG1, kappa)
# heavy: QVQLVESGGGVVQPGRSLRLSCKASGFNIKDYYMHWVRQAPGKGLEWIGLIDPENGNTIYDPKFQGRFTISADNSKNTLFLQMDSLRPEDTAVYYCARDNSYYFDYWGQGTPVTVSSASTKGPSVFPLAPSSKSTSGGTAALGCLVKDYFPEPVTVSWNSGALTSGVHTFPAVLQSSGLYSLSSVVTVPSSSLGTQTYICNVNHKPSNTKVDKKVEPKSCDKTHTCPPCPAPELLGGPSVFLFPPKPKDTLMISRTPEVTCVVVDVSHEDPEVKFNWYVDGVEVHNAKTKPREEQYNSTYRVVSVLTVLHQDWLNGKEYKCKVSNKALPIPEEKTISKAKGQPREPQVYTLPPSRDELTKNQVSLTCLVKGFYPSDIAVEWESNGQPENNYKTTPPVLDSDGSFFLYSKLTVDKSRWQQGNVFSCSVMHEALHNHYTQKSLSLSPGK
# light: B1 light
# modifications: Heavy chain N297 carries the CHO-type N-linked glycan (about 95% fucosylated); not carried by the letters.
# notes: IgG1/kappa Fc variant; transiently expressed in CHO cells (p4185/p4146); EU numbering; also called A330I/I332E (CHO cell-derived); A330I/I332E variant from CHO cells; copies: 2 + 2
# B13: CHO-CNTO 860 I332E (antibody)
# heavy: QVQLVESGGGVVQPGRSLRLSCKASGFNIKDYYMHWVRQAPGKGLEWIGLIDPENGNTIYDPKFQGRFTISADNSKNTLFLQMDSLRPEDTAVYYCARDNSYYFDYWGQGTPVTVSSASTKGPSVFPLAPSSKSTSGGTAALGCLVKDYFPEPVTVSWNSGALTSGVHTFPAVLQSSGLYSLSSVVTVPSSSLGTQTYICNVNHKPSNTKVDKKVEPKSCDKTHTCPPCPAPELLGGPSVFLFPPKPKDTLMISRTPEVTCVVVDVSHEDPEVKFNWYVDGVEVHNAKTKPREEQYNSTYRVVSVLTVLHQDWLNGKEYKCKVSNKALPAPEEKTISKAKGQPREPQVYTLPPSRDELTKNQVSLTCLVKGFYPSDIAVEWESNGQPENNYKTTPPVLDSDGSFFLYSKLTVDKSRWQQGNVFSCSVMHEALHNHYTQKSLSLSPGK
# light: B1 light
# modifications: N-linked glycan at Asn297 of the heavy chain (CHO-type, highly fucosylated); not carried by the letters
# notes: IgG1/kappa Fc variant; transiently expressed in CHO cells (p4157/p4146); also called I332E (CHO cell-derived); I332E from CHO cells; copies: 2 + 2
# Target: T1, recombinant polyhistidine tagged mouse …
# Assay: ELISA, His-tagged mouse receptor captured on copper-coated plate
# Description: (§1) Commercially-available recombinant polyhistidine tagged mouse FcγRI, FcγRII, FcγRIII, and FcγRIV (R&D Systems) were diluted to 1 μg/ml in PBS and 100 μl/well was captured onto copper-coated plates (Pierce) overnight at 4° C. Plates were washed three times with wash buffer (0.15M NaCl, 0.02% Tween 20). Non-specific binding was blocked using 200 μl/well SuperBlock (Pierce) for 15 minutes at room temperature. Plates were washed three times as above. […] Plates were washed three times as above to remove unbound mAb. CNTO 860 variants that bound to plated receptors were detected using 100 μl/well HRP-labeled goat F(ab′)₂ anti-human IgG F(ab′)₂ (Jackson ImmunoResearch) diluted 1:5,000 in PBS incubated at room temperature for 1 hour. Plates were washed five times using wash buffer as above, and developed using 100 μl/well TMB Stable Stop substrate (Fitzgerald Industries) stopped with 0.5M HCl. Absorbance was detected at 450 nm.
# (§2) All binding assays were in an ELISA format, with recombinant soluble receptor captured on coated EIA plates.
row,ECOD1 (concentration required for an O.D. value of 1.0) [ng/mL],Binder
1,4000,B1
2,3000,B2
3,3000,B3
4,7000,B4
5,2700,B5
6,700,B6
7,1600,B7
8,6000,B8
9,900,B9
10,8000,B10
11,6000,B11
12,600,B12
13,1500,B13

# Target: T2, recombinant polyhistidine tagged mouse …
# Assay: as above
# Description: as §1, §2
row,ECOD1 (concentration required for an O.D. value of 1.0) [ng/mL],Binder
1,12000,B2
2,10000,B3
3,25000,B4
4,5000,B5
5,5000,B6
6,3000,B7
7,1900,B8
8,1700,B9
9,90000,B10
10,4000,B11
11,3000,B12
12,4000,B13

# Target: T3, recombinant polyhistidine tagged mouse …
# Assay: as above
# Description: as §1, §2
row,ECOD1 (concentration required for an O.D. value of 1.0) [ng/mL],Binder
1,4000,B1
2,4000,B2
3,3000,B3
4,8000,B4
5,4000,B5
6,600,B6
7,6000,B7
8,2800,B8
9,1100,B9
10,12000,B10
11,6500,B11
12,800,B12
13,1600,B13

# Target: T4, recombinant polyhistidine tagged mouse …
# Assay: as above
# Description: as §1, §2
row,ECOD1 (concentration required for an O.D. value of 1.0) [ng/mL],Binder
1,60,B1
2,30,B2
3,7,B3
4,15,B4
5,100,B5
6,7,B6
7,7,B7
8,7,B8
9,11,B9
10,130,B10
11,30,B11
12,18,B12
13,13,B13

# Target: T5, FcγRIIIa on NK cells of human PBMC (human, UniProt P08637 17-254)
# T5 sequence (P08637 17-254): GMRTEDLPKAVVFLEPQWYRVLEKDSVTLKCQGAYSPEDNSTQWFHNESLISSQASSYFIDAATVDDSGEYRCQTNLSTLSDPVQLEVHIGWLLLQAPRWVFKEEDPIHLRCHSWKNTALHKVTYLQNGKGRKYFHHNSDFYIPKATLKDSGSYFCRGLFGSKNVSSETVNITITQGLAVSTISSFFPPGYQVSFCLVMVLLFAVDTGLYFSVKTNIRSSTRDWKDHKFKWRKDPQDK
# Assay: cell-based or functional assay
fold change of the concentration for 25% lysis against WT CNTO860 from CHO host cells [fold],fold potency in ADCC against YB2/0-CNTO 860 WT [fold],fold potency in ADCC against CHO-CNTO 860 WT [fold],Binder
~100,~8,–,B6
–,–,~7,B13

# Target: T6, recombinant human His-tagged FcγRIIIa (extracellular domain made at Centocor) (human, UniProt P08637 17-208)
# T6 construct: extracellular domain; also called CD16a; recombinant, soluble, human FcγRIIIa
# T6 sequence (P08637 17-208): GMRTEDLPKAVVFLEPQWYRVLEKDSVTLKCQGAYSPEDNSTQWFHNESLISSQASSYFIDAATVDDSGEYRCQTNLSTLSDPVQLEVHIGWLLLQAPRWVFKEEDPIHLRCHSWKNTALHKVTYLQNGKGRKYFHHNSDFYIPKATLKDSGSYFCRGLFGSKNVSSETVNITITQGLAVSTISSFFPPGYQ
# Assay: ELISA
# Description: FcγRI (CD64) ELISA —50 μl of a 1 μg/ml solution of recombinant human His-tagged FcγRI (extracellular domain, R&D Systems #1257-FC-050) in ELISA buffer (PBS, pH 7.4, 4 mg/ml BSA, 0.01% Tween-20) was added to each well of HisGrab 96 well plates (Pierce #15142) (Powers G., Notebook 9006, pp. 166-168, 180-181). The plate was incubated with shaking for 3 hours. The plates were washed 3× with 300 μl of wash buffer (PBS, 0.01% Tween-20) on a plate washer. Serial dilutions of the CNTO860 antibody Fc-variant samples were made in ELISA buffer and 50 μl per well of each titration were added in duplicate to the FcγRI-coated plates. The plates were incubated with shaking for 1 hour. The plates were washed 3× with 300 μl of wash buffer on a plate washer. 50 μl of a 1:10,000 dilution of HRP-labeled goat F(ab′)₂ anti-human IgG F(ab′)₂ (Jackson Immunoresearch # 109-036-097) in ELISA buffer was added to each well. The plates were incubated with shaking for 30 minutes. The plates were washed 3× with 300 μl of wash buffer on the plate washer. 50 μl per well TMB substrate (RDI #RDI-TMBSU-1L) was added to each well and developed for 5 minutes. The reaction was stopped by adding 100 μl 0.2 N sulfuric acid. The plates were read at OD450 on an Envision plate reader.
# FcγRIIIa (CD16a) ELISA—A human FcγRIIIa binding assay was done in ELISA format similar to the assay for FcγRI above. 50 μl of a 2 μg/ml solution of recombinant human His-tagged FcγRIIIa (extracellular domain made at Centocor) in ELISA buffer (PBS, 4 mg/ml BSA, 0.01% Tween-20) was added to each well of HisGrab 96 well plates (Pierce #15142) (Powers G., Notebook 10378, 19-23). The plate was incubated for 3 hours at room temp. The plates were blocked with 200 μl of Starting Block (Pierce #15142) for 30 min, and then washed 3× with 300 μl of wash buffer (PBS, 0.01% Tween-20) on a plate washer. Serial dilutions of the CNTO 860 test samples were made in Starting Block buffer and 50 μl per well of each titration were added in duplicate to the FcγRIIIa-coated plates. The plates were incubated for 1 hour. The plates were washed 3× with 300 μl of wash buffer on a plate washer. 50 μl of a 1:10,000 dilution of HRP-labeled goat F(ab′)2 anti-human IgG F(ab′)2 (Jackson Immunoresearch # 109-036-097) in Starting Block buffer was added to each well. The plates were incubated for 30 minutes.
fold better binding than WT from CHO [fold],fold better binding than WT from YB2/0 cells [fold],fold better binding than WT from CHO cells [fold],Binder
~3,–,–,B2
–,6,–,B3
~30,~10,–,B6
–,–,~8,B12
–,–,6,B13

# Target: T5, FcγRIIIa on NK cells of human PBMC
# Assay: cell-based or functional assay
# Remark: another data set of the same source
row,"EC25 (ng/ml), ADCC of HCT116 cells by human PBMC [ng/mL]",Binder
1,0.15,B3
2,0.7,B4
3,4,B5
4,0.3,B6
5,0.12,B7
6,0.2,B8
7,0.7,B9
8,0.4,B11
9,1.2,B12
10,0.75,B13
